Assay [1] has as its target T1, Myosin binding subunit (MBS) of myosin phosphatase, endogenous in human vascular smooth muscle cells (human, UniProt O14974 1-1030, limits assumed).
T1 construct: In lysate it stands in the myosin phosphatase complex with PP1 and the 20 kD subunit; also called MYPT1
T1 sequence (looked up): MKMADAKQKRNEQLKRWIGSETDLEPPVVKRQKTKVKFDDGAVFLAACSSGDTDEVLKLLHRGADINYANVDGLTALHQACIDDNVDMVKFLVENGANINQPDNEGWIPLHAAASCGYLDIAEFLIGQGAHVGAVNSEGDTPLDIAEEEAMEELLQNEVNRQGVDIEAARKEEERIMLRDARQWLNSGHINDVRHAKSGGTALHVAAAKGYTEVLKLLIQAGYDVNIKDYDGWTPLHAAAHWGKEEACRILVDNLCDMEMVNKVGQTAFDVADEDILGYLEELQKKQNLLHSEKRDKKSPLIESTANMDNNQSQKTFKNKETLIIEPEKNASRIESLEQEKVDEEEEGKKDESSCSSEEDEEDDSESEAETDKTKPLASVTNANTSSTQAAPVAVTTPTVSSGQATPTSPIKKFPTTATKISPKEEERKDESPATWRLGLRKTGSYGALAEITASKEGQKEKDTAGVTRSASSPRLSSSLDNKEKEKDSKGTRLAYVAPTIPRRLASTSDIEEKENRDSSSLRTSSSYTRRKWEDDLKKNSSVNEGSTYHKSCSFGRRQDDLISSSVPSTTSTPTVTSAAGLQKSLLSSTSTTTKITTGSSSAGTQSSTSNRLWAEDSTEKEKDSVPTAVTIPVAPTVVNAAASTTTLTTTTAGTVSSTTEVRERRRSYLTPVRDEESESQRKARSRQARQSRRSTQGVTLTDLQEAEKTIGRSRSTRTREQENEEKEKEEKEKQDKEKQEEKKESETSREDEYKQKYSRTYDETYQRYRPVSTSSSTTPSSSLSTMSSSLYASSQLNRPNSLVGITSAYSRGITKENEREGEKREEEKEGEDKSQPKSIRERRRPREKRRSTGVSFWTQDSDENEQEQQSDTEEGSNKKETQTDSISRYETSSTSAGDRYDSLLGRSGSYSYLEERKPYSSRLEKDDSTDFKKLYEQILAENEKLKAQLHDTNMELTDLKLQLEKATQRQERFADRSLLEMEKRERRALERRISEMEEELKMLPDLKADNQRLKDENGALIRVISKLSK
The experiment in a line: GST pull-down from vascular smooth muscle cell lysate, anti-MBS immunoblot. An excerpt:
Also shown is the same M-RIP domains expressed in COS1 cells as Flag-tagged proteins and immunoprecipitated with M2 antibody. The MBS immunoblot of the immunopellets is shown in the middle panel and the total cellular MBS content from each lysate used for immunoprecipitation is shown in the lower panel. Molecular weight size markers in kD are shown on the right.
Identical results were obtained in heterologous expression studies with epitope-tagged constructs for various M-RIP domains expressed in COS1 cells (FIG. 4B).
(§1) For fusion protein interactions with proteins from cell lysates, confluent cells were rinsed twice with ice cold PBS, lysed in buffer A, incubated for 1 hour at room temperature, then centrifuged at 14,000 rpm for 20 minutes at 40C. The supernatant was mixed with GST-fusion proteins prebound to glutathione agarose beads. After overnight incubation at 40C, the beads were washed with buffer C, eluted with SDS sample buffer and bound proteins were analyzed by immunoblotting. For fusion protein interactions with purified proteins, fusion proteins immobilized on beads were incubated in buffer A for one hour with purified soluble protein previously eluted from beads. After incubation, the beads were washed three times with buffer C, bound proteins were eluted in SDS sample buffer and analyzed by immunoblotting with anti-GST antibodies.
(In general: A western blot detects proteins with antibodies after separation by electrophoresis.)

Assay [2] concerns the target T2, MBS-Cterm-pGBT9 (human MBS base pairs 2043-3090 fused to the Gal4 DNA binding domain) (human, UniProt P04386 1-147; O14974 682-1030).
T2 construct: Bait of the yeast 2-hybrid screen
The experiment in a line: yeast two-hybrid. The source says:
Human MBS-Cterm, base pairs 2043-3090 (kind gift of Dr. Masaaki Ito) was cloned into the EcoR1 site of yeast 2-hybrid vectors pGBT9 and pGAD424, expressing MBS fusion proteins with Gal4 DNA binding domain and DNA activating domain, respectively. Expression of MBS-Cterm in yeast was confirmed by dimerization when MBS-Cterm-pGBT9 and MBS-Cterm-pGAD424 were coexpressed in yeast (data not shown). Yeast strain Y190 was sequentially transformed with MBSCterm- pGBT9 and a human aorta cDNA library (Clontech) using the lithium acetate method. Interactions were identified by growth on selective media, and confirmed by colony lift filter β-galactosidase assay. The cDNA library plasmid was extracted from confirmed positive yeast colonies, and sequenced at the Tufts Core Sequencing Facility.

In assay [3] the target is T3, GST-MBSLZ (amino acids 847-1030 of MBS, includes the leucine zipper domain) (human, UniProt O14974 847-1030).
T3 construct: range 847-1030; also called wild type C terminal MBS; not shown: glutathione S-transferase (GST) tag
T3 sequence (looked up): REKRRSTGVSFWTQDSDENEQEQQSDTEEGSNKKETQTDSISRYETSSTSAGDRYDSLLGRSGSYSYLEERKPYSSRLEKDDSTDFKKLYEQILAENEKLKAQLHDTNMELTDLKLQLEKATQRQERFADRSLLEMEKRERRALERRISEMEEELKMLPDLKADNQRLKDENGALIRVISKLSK
The experiment in a line: purified protein interaction, His fusions on Ni-NTA beads, anti-GST immunoblot. As to the method: FIG. 4F show a series of immunoblots representing a purified protein interaction assay in which similar quantities of 6×his CC1, CC2, and CC3 bound to Ni-NTA beads were incubated with purified soluble GST-MBSLZ or GST-MBSLZ mutant. Bound GST-MBSLZ and GST-MBSLZ mutant were detected using anti-GST antibodies.
as §1

Assay [4] addresses T4, GFP-MBSLZM (full-length GFP-MBS with the C-terminal domain of GST-MBSLZmutant) (human, UniProt O14974 1-1030).
T4 construct: also called GFP-MBSLZ mutant; not shown: GFP of the pEGFP vector
T4 sequence (looked up): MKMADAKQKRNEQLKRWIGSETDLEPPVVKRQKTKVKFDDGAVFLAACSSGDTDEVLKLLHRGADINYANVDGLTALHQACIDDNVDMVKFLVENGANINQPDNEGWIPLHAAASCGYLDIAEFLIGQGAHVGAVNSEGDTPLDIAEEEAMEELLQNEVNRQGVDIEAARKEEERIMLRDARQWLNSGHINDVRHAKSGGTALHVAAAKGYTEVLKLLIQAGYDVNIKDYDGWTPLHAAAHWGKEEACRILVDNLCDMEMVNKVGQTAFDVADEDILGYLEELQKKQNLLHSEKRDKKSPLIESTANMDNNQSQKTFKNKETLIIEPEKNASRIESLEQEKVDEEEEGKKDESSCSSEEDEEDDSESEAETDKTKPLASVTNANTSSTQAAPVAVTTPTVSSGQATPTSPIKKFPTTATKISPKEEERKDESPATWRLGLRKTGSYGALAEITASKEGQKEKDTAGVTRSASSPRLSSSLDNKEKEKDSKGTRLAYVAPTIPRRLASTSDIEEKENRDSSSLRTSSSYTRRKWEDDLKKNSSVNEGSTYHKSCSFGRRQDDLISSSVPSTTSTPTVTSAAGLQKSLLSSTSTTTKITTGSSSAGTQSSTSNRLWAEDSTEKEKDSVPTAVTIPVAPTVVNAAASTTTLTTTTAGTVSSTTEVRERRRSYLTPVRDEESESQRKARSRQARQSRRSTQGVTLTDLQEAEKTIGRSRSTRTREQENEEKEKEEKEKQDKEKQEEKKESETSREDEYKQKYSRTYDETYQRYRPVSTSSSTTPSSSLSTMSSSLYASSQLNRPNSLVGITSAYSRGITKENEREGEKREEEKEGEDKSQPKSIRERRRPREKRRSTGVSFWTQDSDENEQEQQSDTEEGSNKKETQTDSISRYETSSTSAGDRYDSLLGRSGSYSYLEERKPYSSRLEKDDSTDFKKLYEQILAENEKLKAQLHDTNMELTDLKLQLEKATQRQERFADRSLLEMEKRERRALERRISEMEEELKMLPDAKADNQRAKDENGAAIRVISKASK
The experiment in a line: GST pull-down from lysate of transfected COS1 cells, anti-MBS immunoblot.

This note sets out measurements from patent US20040180811A1 (NEW ENGLAND MEDICAL CENTER HOSPITAL, published 2004).

B1: GST-M-RIP545-823 (M-RIP RhoA-binding domain) (other)
chain: AEFRPIQQALAQERVGGVGPADTHEPLRPEAESGELERERARRREERRKRFGMLDATDGPGTEDAALRMEVDRSPGLPMSDLKTHNVHVEIEQRWHQVETTPLREEKQVPIAPVHLSSEDGGDRLSTHELTSLLEKELEQSQKEASDLLEQNRLLQDQLRVALGREQSAREGYVLQATCERGFAAMEETHQKKIEDLQRQHQRELEKLREEKDRLLAEETAATISAIEAMKNAHREEMERELEKSQRSQISSVNSDVEALRRQYLEELQSVQRELEVLS
notes: not shown: glutathione S-transferase (GST) tag of the pGEX vector
Turning to B1, the binding result in assay [1] is reported as “no binding”.

B2: MBS-Cterm-pGAD424 (human MBS base pairs 2043-3090 fused to the Gal4 DNA activating domain) (other, UniProt O14974 682-1030, looked up, not shown: large carriers)
chain: RKARSRQARQSRRSTQGVTLTDLQEAEKTIGRSRSTRTREQENEEKEKEEKEKQDKEKQEEKKESETSREDEYKQKYSRTYDETYQRYRPVSTSSSTTPSSSLSTMSSSLYASSQLNRPNSLVGITSAYSRGITKENEREGEKREEEKEGEDKSQPKSIRERRRPREKRRSTGVSFWTQDSDENEQEQQSDTEEGSNKKETQTDSISRYETSSTSAGDRYDSLLGRSGSYSYLEERKPYSSRLEKDDSTDFKKLYEQILAENEKLKAQLHDTNMELTDLKLQLEKATQRQERFADRSLLEMEKRERRALERRISEMEEELKMLPDLKADNQRLKDENGALIRVISKLSK
notes: domain: MBS-Cterm (base pairs 2043-3090)
As for B2, in assay [2], the binding result is reported as “binds”.

B3: 6×his CC2 (polyhistidine fusion of M-RIP coiled-coil domain 2) (other)
chain: AAMEETHQKKIEDLQRQHQRELEKLREEKDRLLAEETAATISAIEAMKNAHREEMERELEKSQRSQISSVNSDVEALRRQYLEELQSVQRELEVLSEQYSQKCLENAHLAQALEAERQALRQCQRENQELNAHNQELNNRLAAEITRLRTL
notes: not shown: polyhistidine (6xhis) tag of the pQE vector
For B3, in assay [3], the binding result is “binds”.

B4: GST-M-RIP545-878 (RhoA-binding domain plus the remaining carboxy-terminus of CC2) (other)
chain: AEFRPIQQALAQERVGGVGPADTHEPLRPEAESGELERERARRREERRKRFGMLDATDGPGTEDAALRMEVDRSPGLPMSDLKTHNVHVEIEQRWHQVETTPLREEKQVPIAPVHLSSEDGGDRLSTHELTSLLEKELEQSQKEASDLLEQNRLLQDQLRVALGREQSAREGYVLQATCERGFAAMEETHQKKIEDLQRQHQRELEKLREEKDRLLAEETAATISAIEAMKNAHREEMERELEKSQRSQISSVNSDVEALRRQYLEELQSVQRELEVLSEQYSQKCLENAHLAQALEAERQALRQCQRENQELNAHNQELNNRLAAEITRLRTL
notes: as for B1
For B4, the binding result in assay [4] is on record as “no binding”.
